Here are results for four molecules from patent US20260217824A1 (Bristol-Myers Squibb, published 2026).

Like-named read-outs stand apart in the source and are kept apart here.

Assay [1] deals with T1, FcγRIIIA (CD16a-V158 variant) (human, UniProt P08637 17-208). The assay is described as follows: SPR sensorgrams, Example 10; response axis without unit, no time axis; set-up and concentrations not given.
Assay [2] deals with T2, FcγRIIIB (CD16b-NA2 variant) (human, UniProt O75015 17-200). The description is as above.
The target in assay [3] is T3, FcγRIIB (CD32b) (human, UniProt P31994 43-217).
T3 sequence (looked up): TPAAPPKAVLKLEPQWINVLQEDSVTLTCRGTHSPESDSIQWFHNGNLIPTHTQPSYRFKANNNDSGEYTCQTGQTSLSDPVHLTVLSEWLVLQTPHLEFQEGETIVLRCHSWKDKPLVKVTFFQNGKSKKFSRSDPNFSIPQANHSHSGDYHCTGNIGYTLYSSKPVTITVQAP
Described as above.

Assay [4] addresses T4, FcγRIIA (CD32a-H131 variant) (human, UniProt P12318 36-218).
T4 sequence (looked up): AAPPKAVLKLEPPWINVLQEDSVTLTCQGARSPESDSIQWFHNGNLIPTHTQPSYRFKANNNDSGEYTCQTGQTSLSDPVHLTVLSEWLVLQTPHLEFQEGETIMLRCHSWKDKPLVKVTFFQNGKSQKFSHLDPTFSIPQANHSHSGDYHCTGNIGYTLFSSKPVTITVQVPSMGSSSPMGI
The assay is described as follows: SPR, response as % of Rmax (maximum FcγR capacity), Example 10; set-up and concentrations not given.

The target of another assay is FcγRI (CD64) (human, UniProt P12314 16-288). The assay is described as above.
For assay [5], the target named is T5, FcγRIIA (CD32a-R131 variant) (human, UniProt P12318 36-218).
T5 sequence (looked up): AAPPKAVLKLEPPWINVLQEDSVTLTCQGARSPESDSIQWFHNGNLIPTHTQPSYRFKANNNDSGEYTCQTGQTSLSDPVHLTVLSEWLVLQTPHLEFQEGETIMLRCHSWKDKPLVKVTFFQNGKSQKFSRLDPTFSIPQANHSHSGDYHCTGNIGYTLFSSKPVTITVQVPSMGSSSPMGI
The assay is described as above.

In assay [6] the target is T1, FcγRIIIA (CD16a-V158 variant). As to the kind of experiment: SPR sensorgrams, Example 10; response axis without unit, no time axis; set-up and concentrations not given. This is another data set of the same source.
For assay [7], the target named is T4, FcγRIIA (CD32a-H131 variant). The assay is described as above.
In assay [8] the target is T5, FcγRIIA (CD32a-R131 variant). The assay is described as above.
In assay [9] the target is T3, FcγRIIB (CD32b). The assay is described as above. The source holds these as a separate data set.
In assay [10] the target is T2, FcγRIIIB (CD16b-NA2 variant). The assay is described as follows: SPR, response as % of Rmax (maximum FcγR capacity), Example 10; set-up and concentrations not given.
In assay [11] the target is T6, cynomolgus TREM-1 on cells (cynomolgus).
T6 chain: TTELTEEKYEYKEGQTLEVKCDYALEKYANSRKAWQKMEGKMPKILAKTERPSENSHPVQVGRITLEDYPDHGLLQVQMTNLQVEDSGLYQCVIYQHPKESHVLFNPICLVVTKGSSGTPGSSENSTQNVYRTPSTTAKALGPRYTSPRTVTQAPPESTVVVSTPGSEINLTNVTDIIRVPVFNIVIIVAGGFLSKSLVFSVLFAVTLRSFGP
As to the kind of experiment: cell-based or functional assay.

Assay [12] concerns the target T6, cynomolgus TREM-1 on cells. The assay is described as follows: in vivo receptor occupancy against serum concentration, Emax model, cynomolgus monkeys. The protocol: Upon antibody administration, pharmacokinetics, anti-drug antibodies (ADA), TREM-1 receptor occupancy (RO), and ex vivo pharmacodynamics responses were examined at pre-determined time points.
(§1) A direct-effect inhibitory model was used to describe the PD response. […] The observed (open circle) and model-predicted endpoints (solid line) are provided in FIGS. 16A (0.1 mg/kg subcutaneous dosing) and 16B (10 mg/kg subcutaneous dosing).

Assay [13] concerns the target T6, cynomolgus TREM-1 on cells. As to the kind of experiment: estimate of the 2-compartment PK model with TMDD fitted to cynomolgus PK/RO/PD data (mAb affinity for TREM-1); cyno-model estimate (CV 12%) of the TMDD PK/PD fit, not a direct binding assay. As for the experimental part:
as §1

Assay [14] has as its target T7, CynoTREM1 (as named in Table 3) (cynomolgus).
T7 construct: also called cynomolgus TREM-1
T7 chain: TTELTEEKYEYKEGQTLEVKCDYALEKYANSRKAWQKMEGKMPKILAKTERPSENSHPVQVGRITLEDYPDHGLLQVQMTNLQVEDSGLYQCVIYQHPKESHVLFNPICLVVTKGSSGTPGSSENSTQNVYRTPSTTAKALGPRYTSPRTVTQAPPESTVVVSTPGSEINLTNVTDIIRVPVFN
As to the kind of experiment: SPR (Biacore).

Chain of FcγRI (CD64) (P12314 16-288 limits assumed): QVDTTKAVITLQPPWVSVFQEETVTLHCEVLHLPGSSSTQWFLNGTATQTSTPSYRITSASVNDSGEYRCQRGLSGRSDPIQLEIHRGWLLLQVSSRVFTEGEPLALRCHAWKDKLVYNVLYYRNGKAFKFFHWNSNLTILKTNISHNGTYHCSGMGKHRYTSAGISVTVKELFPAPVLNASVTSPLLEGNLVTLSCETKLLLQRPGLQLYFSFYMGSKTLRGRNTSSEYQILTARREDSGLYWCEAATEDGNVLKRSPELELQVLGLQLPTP
T1 sequence (P08637 other isoform, or with tags, fused parts or gaps mutant limits assumed): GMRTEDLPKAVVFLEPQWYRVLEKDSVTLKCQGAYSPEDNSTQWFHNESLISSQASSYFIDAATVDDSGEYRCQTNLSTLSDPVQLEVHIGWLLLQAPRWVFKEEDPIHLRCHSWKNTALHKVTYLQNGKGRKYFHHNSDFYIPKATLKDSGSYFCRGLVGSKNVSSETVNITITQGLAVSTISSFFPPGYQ
T2 sequence (O75015 other isoform, or with tags, fused parts or gaps mutant limits assumed): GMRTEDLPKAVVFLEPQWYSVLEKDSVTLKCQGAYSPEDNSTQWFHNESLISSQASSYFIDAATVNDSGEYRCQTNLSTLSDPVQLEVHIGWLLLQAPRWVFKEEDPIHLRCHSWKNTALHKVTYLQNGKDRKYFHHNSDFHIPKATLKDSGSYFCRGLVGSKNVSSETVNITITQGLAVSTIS

B1: mAb 0318-IgG1-Aba (antibody)
heavy: not shown
light: DIVLTQSPDSLAVSLGERATINCRASQSVDTFDYSFLHWYQQKPGQPPKLLIYRASNLESGVPDRFSGSGSGTDFTLTISSLQAEDVAVYYCQQSNQDPYTFGQGTKLEIKRTVAAPSVFIFPPSDEQLKSGTASVVCLLNNFYPREAKVQWKVDNALQSGNSQESVTEQDSKDSTYSLSSTLTLSKADYEKHKVYACEVTHQGLSSPVTKSFNRGEC
notes: IgG1 constant region with K214R, C226S, C229S, P238S (EU); also called IgG1-Aba mod; FcAba-1
Consider B1, for which the binding result is “no binding” in assay [1]; “no binding” in [2]; “no binding” in the assay with FcγRIIB (CD32b) [3]; “no binding” in assay [4]; “binds” in the assay with FcγRI (CD64); “no binding” in assay [5].

B2: mAb 0318-IgG1.1f (antibody)
heavy: EVQLVESGGGLVQPGGSLKLSCAASGFTFSTYAMHWVRQASGKGLEWVGRIRTKSSNYATYYAASVKGRFTISRDDSKNTAYLQMNSLKTEDTAVYYCTRDMGIRRQFAYWGQGTLVTVSSASTKGPSVFPLAPSSKSTSGGTAALGCLVKDYFPEPVTVSWNSGALTSGVHTFPAVLQSSGLYSLSSVVTVPSSSLGTQTYICNVNHKPSNTKVDKRVEPKSCDKTHTCPPCPAPEAEGAPSVFLFPPKPKDTLMISRTPEVTCVVVDVSHEDPEVKFNWYVDGVEVHNAKTKPREEQYNSTYRVVSVLTVLHQDWLNGKEYKCKVSNKALPSSIEKTISKAKGQPREPQVYTLPPSREEMTKNQVSLTCLVKGFYPSDIAVEWESNGQPENNYKTTPPVLDSDGSFFLYSKLTVDKSRWQQGNVFSCSVMHEALHNHYTQKSLSLSPG
light: DIVLTQSPDSLAVSLGERATINCRASQSVDTFDYSFLHWYQQKPGQPPKLLIYRASNLESGVPDRFSGSGSGTDFTLTISSLQAEDVAVYYCQQSNQDPYTFGQGTKLEIKRTVAAPSVFIFPPSDEQLKSGTASVVCLLNNFYPREAKVQWKVDNALQSGNSQESVTEQDSKDSTYSLSSTLTLSKADYEKHKVYACEVTHQGLSSPVTKSFNRGEC
notes: IgG1 constant region with L234A, L235E, G237A, A330S, P331S (EU)
As for B2, the binding result (with FcγRI (CD64); in assay [5]) was “binds” throughout.

B3: mAb 0318-IgG4-Aba (antibody)
heavy: not shown
light: DIVLTQSPDSLAVSLGERATINCRASQSVDTFDYSFLHWYQQKPGQPPKLLIYRASNLESGVPDRFSGSGSGTDFTLTISSLQAEDVAVYYCQQSNQDPYTFGQGTKLEIKRTVAAPSVFIFPPSDEQLKSGTASVVCLLNNFYPREAKVQWKVDNALQSGNSQESVTEQDSKDSTYSLSSTLTLSKADYEKHKVYACEVTHQGLSSPVTKSFNRGEC
notes: IgG4 CH1 with IgG1 CH2 and CH3, C226S, C229S, P238S (EU); also called IgG4-Aba mod; FcAba-4
Take B3: the binding result is “no binding” in [6]; “no binding” in assay [7]; “no binding” in assay [8]; “no binding” with FcγRIIB (CD32b) [9]; “binds” with FcγRI (CD64); “no binding” in assay [10].

B4: mAb 0318-IgG1.3f (antibody)
heavy: EVQLVESGGGLVQPGGSLKLSCAASGFTFSTYAMHWVRQASGKGLEWVGRIRTKSSNYATYYAASVKGRFTISRDDSKNTAYLQMNSLKTEDTAVYYCTRDMGIRRQFAYWGQGTLVTVSSASTKGPSVFPLAPSSKSTSGGTAALGCLVKDYFPEPVTVSWNSGALTSGVHTFPAVLQSSGLYSLSSVVTVPSSSLGTQTYICNVNHKPSNTKVDKRVEPKSCDKTHTCPPCPAPEAEGAPSVFLFPPKPKDTLMISRTPEVTCVVVDVSHEDPEVKFNWYVDGVEVHNAKTKPREEQYNSTYRVVSVLTVLHQDWLNGKEYKCKVSNKALPAPIEKTISKAKGQPREPQVYTLPPSREEMTKNQVSLTCLVKGFYPSDIAVEWESNGQPENNYKTTPPVLDSDGSFFLYSKLTVDKSRWQQGNVFSCSVMHEALHNHYTQKSLSLSPGK
light: DIVLTQSPDSLAVSLGERATINCRASQSVDTFDYSFLHWYQQKPGQPPKLLIYRASNLESGVPDRFSGSGSGTDFTLTISSLQAEDVAVYYCQQSNQDPYTFGQGTKLEIKRTVAAPSVFIFPPSDEQLKSGTASVVCLLNNFYPREAKVQWKVDNALQSGNSQESVTEQDSKDSTYSLSSTLTLSKADYEKHKVYACEVTHQGLSSPVTKSFNRGEC
notes: IgG1 constant region with L234A, L235E, G237A (EU)
As to B4, in assay [11], the “IC50 (nM), estimate of the cynomolgus PK/PD model” value is 1.9 nM. The molecule further gave a concentration for a half-maximal effect (EC50) in assay [12] of 1.6 nM. In addition, the values for the Kd in [13] and in assay [14] were 0.64 nM and 3.4 nM, respectively. Also, the binding result (with FcγRI (CD64); in [5]) was “binds” throughout.
